According to publication PMC9352680, “A comprehensive thermodynamic model for RNA binding by the Saccharomyces cerevisiae Pumilio protein PUF4”:
Substitutions are numbered along the chain they refer to. Names and notes keep the numbering of the source.

B1: Ic_S2_P4E.1_K4.1_C4.1_H4.1_A4.1_[T5C]_[A6G]_[T7A]_F4.1_[T8C]_T4.1 (ssRNA)
RNA: UUUGAUUAAUAUGAUAUCGUUCUUUCUUGUACGACAUUCUUUCUCGAUAUCAUAUUAAUCUUU
B2: Ic_S2_P4E.1_K4.1_C4.1_H4.1_A4.1_[T5C]_[A6G]_F4.1_[T8C]_T4.1 (ssRNA)
RNA: B1 RNA with A34U
B3: Ic_S2_P4E.1_K4.1_C4.1_H4.1_A4.1_[T5C]_[A6G]_F4.1_[T8A]_T4.1 (ssRNA)
RNA: B1 RNA with A34U, C35A
B4: Ic_S2_P4E.1_K4.1_C4.1_H4.1_A4.1_[T5C]_[A6G]_F4.1_[A9G]_T4.1 (ssRNA)
RNA: B1 RNA with A34U, C35U, A36G
B5: Ic_S2_P4E.1_K4.1_C4.1_H4.1_A4.1_[T5C]_[A6G]_F4.1_[A9T]_T4.1 (ssRNA)
RNA: B1 RNA with A34U, C35U, A36U
B6: Ic_S2_P4E.1_K4.1_C4.1_H4.1_A4.1_[T5C]_[A6C]_[T7G]_F4.1_[T8C]_[A9C]_T4.1 (ssRNA)
RNA: B1 RNA with G33C, A34G, A36C
B7: Ic_S2_P4E.1_K4.1_C4.1_H4.1_A4.1_[T5C]_[A6C]_[T7G]_F4.1_[T8C]_[A9T]_T4.1 (ssRNA)
RNA: B1 RNA with G33C, A34G, A36U
B8: Ic_S2_P4E.1_K4.1_C4.1_H4.1_A4.1_[T5C]_[A6C]_[T7G]_F4.1_[T8A]_[A9C]_T4.1 (ssRNA)
RNA: B1 RNA with G33C, A34G, C35A, A36C
B9: Ic_S2_P4E.1_K4.1_C4.1_H4.1_A4.1_[T5C]_[A6C]_[T7C]_F4.1_[T8G]_[A9G]_T4.1 (ssRNA)
RNA: B1 RNA with G33C, A34C, C35G, A36G
B10: Ic_S2_P4E.1_K4.1_C4.1_H4.1_A4.1_[T5C]_[A6C]_[T7C]_F4.1_[T8G]_[A9C]_T4.1 (ssRNA)
RNA: B1 RNA with G33C, A34C, C35G, A36C
B11: Ic_S2_P4E.1_K4.1_C4.1_H4.1_A4.1_[T5C]_[A6C]_[T7C]_F4.1_[T8C]_[A9G]_T4.1 (ssRNA)
RNA: B1 RNA with G33C, A34C, A36G
B12: Ic_S2_P4E.1_K4.1_C4.1_H4.1_A4.1_[T5C]_[A6C]_[T7C]_F4.1_[T8C]_[A9T]_T4.1 (ssRNA)
RNA: B1 RNA with G33C, A34C, A36U
B13: Ic_S2_P4E.1_K4.1_C4.1_H4.1_A4.1_[T5C]_[A6C]_[T7C]_F4.1_[T8A]_[A9T]_T4.1 (ssRNA)
RNA: B1 RNA with G33C, A34C, C35A, A36U
B14: Ic_S2_P4E.1_K4.1_C4.1_H4.1_A4.1_[T5C]_[A6C]_[T7C]_F4.1_[A9G]_T4.1 (ssRNA)
RNA: B1 RNA with G33C, A34C, C35U, A36G
B15: Ic_S2_P4E.1_K4.1_C4.1_H4.1_A4.1_[T5C]_[A6C]_[T7C]_F4.1_[A9C]_T4.1 (ssRNA)
RNA: B1 RNA with G33C, A34C, C35U, A36C
B16: Ic_S2_P4E.1_K4.1_C4.1_H4.1_A4.1_[T5C]_[A6C]_[T7C]_F4.1_[A9T]_T4.1 (ssRNA)
RNA: B1 RNA with G33C, A34C, C35U, A36U
B17: Ic_S2_P4E.1_K4.1_C4.1_H4.1_A4.1_[T5C]_[A6C]_[T7C]_F4.1_T4.1 (ssRNA)
RNA: B1 RNA with G33C, A34C, C35U
B18: Ic_S2_P4E.1_K4.1_C4.1_H4.1_A4.1_[T5C]_[A6C]_[T7A]_F4.1_[T8G]_[A9T]_T4.1 (ssRNA)
RNA: B1 RNA with G33C, C35G, A36U
B19: Ic_S2_P4E.1_K4.1_C4.1_H4.1_A4.1_[T5C]_[A6C]_[T7A]_F4.1_[T8C]_[A9G]_T4.1 (ssRNA)
RNA: B1 RNA with G33C, A36G
B20: Ic_S2_P4E.1_K4.1_C4.1_H4.1_A4.1_[T5C]_[A6C]_[T7A]_F4.1_[T8C]_T4.1 (ssRNA)
RNA: B1 RNA with G33C
B21: Ic_S2_P4E.1_K4.1_C4.1_H4.1_A4.1_[T5C]_[A6C]_[T7A]_F4.1_[T8A]_[A9C]_T4.1 (ssRNA)
RNA: B1 RNA with G33C, C35A, A36C
B22: Ic_S2_P4E.1_K4.1_C4.1_H4.1_A4.1_[T5C]_[A6C]_[T7A]_F4.1_[T8A]_[A9T]_T4.1 (ssRNA)
RNA: B1 RNA with G33C, C35A, A36U
B23: Ic_S2_P4E.1_K4.1_C4.1_H4.1_A4.1_[T5C]_[A6C]_[T7A]_F4.1_[A9G]_T4.1 (ssRNA)
RNA: B1 RNA with G33C, C35U, A36G
B24: Ic_S2_P4E.1_K4.1_C4.1_H4.1_A4.1_[T5C]_[A6C]_[T7A]_F4.1_[A9C]_T4.1 (ssRNA)
RNA: B1 RNA with G33C, C35U, A36C
B25: Ic_S2_P4E.1_K4.1_C4.1_H4.1_A4.1_[T5C]_[A6C]_F4.1_[T8G]_[A9T]_T4.1 (ssRNA)
RNA: B1 RNA with G33C, A34U, C35G, A36U

Molecular target: T1, PUF4 RNA-binding domain (Saccharomyces cerevisiae, UniProt P25339 537-888)
T1 sequence: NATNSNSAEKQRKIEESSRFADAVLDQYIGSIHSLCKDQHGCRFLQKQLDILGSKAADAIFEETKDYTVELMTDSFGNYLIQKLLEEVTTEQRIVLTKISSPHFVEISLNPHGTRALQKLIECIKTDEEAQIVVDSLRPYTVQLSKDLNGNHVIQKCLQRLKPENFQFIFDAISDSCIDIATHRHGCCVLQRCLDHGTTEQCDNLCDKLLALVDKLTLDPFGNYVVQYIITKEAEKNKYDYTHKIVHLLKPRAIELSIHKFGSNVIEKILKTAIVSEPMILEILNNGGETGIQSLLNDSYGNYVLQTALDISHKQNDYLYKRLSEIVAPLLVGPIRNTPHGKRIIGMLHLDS
Assay: Mg; RNA-MaP; 20 mM Na-HEPES pH 7.4, 30 mM KOAc, 0.75 mM MgCl2, 0.1% Tween-20, 5% glycerol, 0.1 mg/mL BSA, 2 mM DTT; 25 C; 0.0125-409.6 nM protein
Conditions: tags: N-His6-TEV cleaved; C-SNAP kept, Cy3B-labelled; label: tethered on chip by stalled RNA polymerase

Binder | Kd
B1 | 407 nM
B2 | 117 nM
B3 | 125 nM
UCUCUUUGUGUUUAUCUCUU (ssRNA) [Ib_S1_P3E.1_K3.1_C3.1_H3.1_[A4G]_A3.1_[A6T]_F3.1_T3.1] | 549 nM
B4 | 28.9 nM
B5 | 19.6 nM
B6 | 736 nM
B7 | 154 nM
B8 | 936 nM
B9 | 844 nM
B10 | 1580 nM
B11 | 595 nM
B12 | 96.8 nM
B13 | 81.4 nM
UCUCUUUGUCUUUAUCUCUU (ssRNA) [Ib_S1_P3E.1_K3.1_C3.1_H3.1_[A4C]_A3.1_[A6T]_F3.1_T3.1] | > 2300 nM
B14 | 20.2 nM
B15 | 24.5 nM
B16 | 14.4 nM
B17 | 1.46 nM
B18 | 171 nM
B19 | 271 nM
B20 | 162 nM
B21 | 712 nM
B22 | 20.6 nM
B23 | 3.21 nM
UCUCUUUGUAUAUUUUCUCUU (ssRNA) [Ia_S1_P4E.1_K4.1_C4.1_H4.1_A4.1_F4.1_[A9T]_T4.1] | 4.51 nM
UCUCUUUGUUUGUAUCUCUU (ssRNA) [Ib_S1_P3E.1_K3.1_C3.1_H3.1_[A4T]_A3.1_[A6G]_F3.1_T3.1] | 133 nM
B24 | 9.15 nM
B25 | 28.4 nM
